One molecule from patent publication US11781101B2, “3D-printed models of biological microenvironments” (Regents of the University of Minnesota, priority 2018, dated 2023) can be followed below.

Experiment [1] relates to GFP-expressing M4A4 cells (a melanoma cell line). Description: 3D-printed directional cell migration chamber, EGF capsules, M4A4. Type of experiment: cell-based. Conditions: EGF capsules sequentially ruptured over 10 days. From the text: (§1) FIG. 21 is a graphical representation of relative selective directed migration of A549 tumor cells, M4A4 tumor cells, and non-tumor HUVEC cells of FIGS. 20A and 20B in response to laser rupture of the EGF-containing programmable release capsules within an example cell migration chamber in accordance with examples of this disclosure. FIG. 21 illustrates distributions of GFP-A549s, GFP-M4A4s, and RFP-HUVECs on day 10, showing the selective directed migration of tumor cells but not HUVECs (mean±s.d., n=4 per group). Scale bar: 500 μm.

Experiment [2] concerns A549 cells in HUVEC-lined conduit. Description: Vascularized extravasation model, EGF capsules. Type of experiment: cell-based. Conditions: EGF gradients from ruptured capsules, fibroblast-laden gel, by day 4. From the text:
FIG. 24A is confocal images of a top view and a side view of a representative microchannel lined by HUVECs within a fibrin gel, such as in the context of the example 3D-printed culture chamber of FIG. 23. FIG. 24B is a fluorescence image of a representative microchannel lined by HUVECs and perfused by fluorescent fluid. In the example of FIG. 24A, a microchannel was created using the pin-molding technique within the fibrin gel of the culture chamber. […]
FIG. 26A is fluorescence images of a conduit of an example vascularized 3D-printed culture chamber illustrating guided extravasation of A549s and subsequent metastases generated over time on days 0 and 2 following the programmable release of EGF from EGF-containing programmable release capsules in accordance with examples of this disclosure. FIG. 26B is fluorescence images of the conduit of FIG. 26A illustrating guided extravasation of A549s and subsequent metastases generated over time on days 4 and 6 following laser-triggered rupture of EGF-containing programmable-release capsules (inset: fluorescence image showing transendothelial formation of metastasis). […]
FIG. 27 is fluorescence images showing the vascularized extravasation model of FIG. 26 after A549s were injected within the conduit without rupture of EGF capsules. […]

For experiment [3], the system named is GFP-A549 lung cancer cells. Description: 3D-printed directional cell migration chamber, EGF capsules, A549. Type of experiment: cell-based. From the text:
In the example experiment illustrated in FIG. 14, a droplet of fibrin loaded with GFP-A549 lung cancer cells 1400 was printed between linear arrays of chemoattractant capsules 1404 (right) and blank control capsules 1402 (left). The printed droplet defined the primary site of the tumor cells 1400. To generate a long-lasting EGF gradient, capsules 1402 and 1404 were ruptured sequentially at 2-day intervals, starting with the capsule 1408A closest to the cell 1400. Concomitantly, a corresponding control capsule 1408B was also ruptured. The resulting EGF gradient and GFP-A549 response to the gradient is discussed below with respect to FIGS. 15A-17.
FIG. 15B is panoramic fluorescence images illustrating distribution of the GFP-expressing A549 cells of FIG. 15A over time during days 6-10 post-laser rupture of the EGF-containing programmable-release capsules of FIG. 15A. […]
FIG. 16 is a graphical representation of cellular fluorescence intensity of example EGF-expressing A549 cells vs time, with and without EGF release from example programmable-release capsules within a cell migration chamber in accordance with examples of this disclosure. […] The cellular growth rates were first quantitatively compared between samples with and without laser-triggered release of EGF by directly analyzing the fluorescence intensity of GFP-expressing cells. […]

Experiment [4] deals with RFP-expressing HUVEC cells. Description: 3D-printed directional cell migration chamber, EGF capsules, HUVEC. Type of experiment: cell-based, human. The note with it: EGF capsules sequentially ruptured over 10 days.
Description: as §1

B1: EGF: EGF, a chemoattractant of carcinoma cells, encapsulated in programmable-release capsules (protein, UniProt P01133 23-1207, looked up)
Pro-epidermal growth factor: PQHWSCPEGTLAGNGNSTCVGPAPFLIFSHGNSIFRIDTEGTNYEQLVVDAGVSVIMDFHYNEKRIYWVDLERQLLQRVFLNGSRQERVCNIEKNVSGMAINWINEEVIWSNQQEGIITVTDMKGNNSHILLSALKYPANVAVDPVERFIFWSSEVAGSLYRADLDGVGVKALLETSEKITAVSLDVLDKRLFWIQYNREGSNSLICSCDYDGGSVHISKHPTQHNLFAMSLFGDRIFYSTWKMKTIWIANKHTGKDMVRINLHSSFVPLGELKVVHPLAQPKAEDDTWEPEQKLCKLRKGNCSSTVCGQDLQSHLCMCAEGYALSRDRKYCEDVNECAFWNHGCTLGCKNTPGSYYCTCPVGFVLLPDGKRCHQLVSCPRNVSECSHDCVLTSEGPLCFCPEGSVLERDGKTCSGCSSPDNGGCSQLCVPLSPVSWECDCFPGYDLQLDEKSCAASGPQPFLLFANSQDIRHMHFDGTDYGTLLSQQMGMVYALDHDPVENKIYFAHTALKWIERANMDGSQRERLIEEGVDVPEGLAVDWIGRRFYWTDRGKSLIGRSDLNGKRSKIITKENISQPRGIAVHPMAKRLFWTDTGINPRIESSSLQGLGRLVIASSDLIWPSGITIDFLTDKLYWCDAKQSVIEMANLDGSKRRRLTQNDVGHPFAVAVFEDYVWFSDWAMPSVMRVNKRTGKDRVRLQGSMLKPSSLVVVHPLAKPGADPCLYQNGGCEHICKKRLGTAWCSCREGFMKASDGKTCLALDGHQLLAGGEVDLKNQVTPLDILSKTRVSEDNITESQHMLVAEIMVSDQDDCAPVGCSMYARCISEGEDATCQCLKGFAGDGKLCSDIDECEMGVPVCPPASSKCINTEGGYVCRCSEGYQGDGIHCLDIDECQLGEHSCGENASCTNTEGGYTCMCAGRLSEPGLICPDSTPPPHLREDDHHYSVRNSDSECPLSHDGYCLHDGVCMYIEALDKYACNCVVGYIGERCQYRDLKWWELRHAGHGQQQKVIVVAVCVVVLVMLLLLSLWGAHYYRTQKLLSKNPKNPYEESSRDVRSRRPADTEDGMSSCPQPWFVVIKEHQDLKNGGQPVAGEDGQAADGSMQPTSWRQEPQLCGMGTEQGCWIPVSSDKGSCPQVMERSFHMPSYGTQTLEGGVEKPHSLLSANPLWQQRALDPPHQMELTQ
modifications: Pro-epidermal growth factor encapsulated in programmable-release capsules
As to B1, the “directed migration of M4A4 cells” value in experiment [1] is on record as “exhibited directional movement”. Also, in experiment [2], the “transendothelial behavior (extravasation) of A549s” value was “cells underwent both extravasation and proliferation”. The “maximum cell velocity of leading A549 cells” value in experiment [3] (guidance of EGF cues from sequentially laser-ruptured capsules in fibrin gel, x-direction displacement, mean±s.d., n=4) was determined as 15.48±1.05 μm/h. The “growth (proliferation) of tumor cells, cellular fluorescence intensity” value in experiment [3] (laser-triggered EGF release vs no release, 10 days) is recorded as “accelerated”. In addition, the “migratory response of HUVECs to EGF gradients” value in experiment [4] was “negative migratory response”.
